Results on one molecule are retold here after US20220119496A1, “INHIBITORS OF CYSTEINE PEPTIDASES ISOLATED FROM NATURAL RAW MATERIALS AND USE OF THE INHIBITORS IN MEDICINE AND VETERINARY MEDICINE” (priority 2019, published 2022).

“And” between values parts separate entries of the source, which are not always exact repeats. Equal entries are not always repeated.

Data set [1] deals with cysteine gingipain in gingival pocket fluids. In words: Inhibition of cysteine gingipain activity in gingival pocket fluids of patients with periodontitis (BApNA substrate). As to conditions: not exceeded even with excess inhibitor. The data set is classed as biochemical, human.
Procedure: In gingival pocket fluids, cysteine gingipain activity was determined as the amount of p-nitroaniline released from BApNA (Benzoyl-DL Arginyl-para-nitroanilide) substrates, or Z-Arg-Arg-pNA (Benzol-DLArg-Arg-β-p-nitroanilide).
The amount of cysteine peptidases that was used as enzymatic activity was that led to the degradation of the substrates used and release of micromoles of p-nitroaniline from them within 1 minute at 37° C.
Inhibition was performed in 10 fluid samples from gingival pockets taken from patients diagnosed with periodontitis.
Determination of gingipain activity in fluids taken from gingival pockets: Fluid from the gingival pockets is taken with small strips of cellulose paper, which are placed in a tube containing 1 ml of PBS. The solution is sonicated for 30 sec on ice, then centrifuged at 10,000 g for 10 min.
To 1 ml of 20 mM pH 6.0 phosphate buffer containing 2 mM EDTA and 1 mM DTT is added 100 μl gingipain solution, then 20-100 μL inhibitor solution is added, and 20 μL BApNA substrate solution (Benzoyl DL Arginyl para-nitroanilide) 40/mg/ml DMSO. […] Absorbance is measured at 405 nm on a spectrophotometer relative to the control (without inhibitors and papain). Gingipain activity is measured by the amount of para-nitroaniline released.
For data set [2] the test system is unchanged. Kind of data set: In vitro inhibition of cysteine gingipain activity in human gingival pocket fluids by egg white cystatin (BANA substrate). The data set is classed as biochemical. The note with it: Table 6. How it is done: (§1) A solution containing known cystatin from egg white with a concentration of 0.02% and activity of 12 U/mg and 20% glycerin was used to rub the gums of dogs (once a day) and added 0.2 ml to a bowl with 200 ml drinking water (1 mU)/ml cystatin) for 4-6 weeks. Liquids from gingival pockets were removed using plaque paper, which was placed in 1 ml saline and frozen at −80° C., before removing plaque calculus. Then, after the aforementioned cystatin therapy from egg white, fluids from the gingival pockets were taken again in an analogous manner and frozen. After obtaining the desired amount of samples, they were thawed, sonicated, centrifuged to then determine the activity of cysteine gingipain in 100 μL samples using a BANA substrate (Benzoyl-arginyl-beta-naphthylamide). Test samples with a volume of 100 μl were preincubated at 37° C. in 0.01 M phosphate buffer pH 6.0 with the addition of 1 μM DL-cysteine and 2 μM EDTA for 10 minutes, then a solution of N-benzoyl DL-arginyl hydrochloride-β-naphthylamide (BANA) so that its final concentration in the test sample was 1.5 mM, and then incubated under these conditions for 30 minutes. After this time, the reaction was stopped by determining the colorimetrically released β-naphthylamine.
As one unit of enzymatic activity of cysteine proteinases is the amount of enzyme which releases 1.0 nmole of β-naphthylamine from the substrate within one hour under the described incubation conditions, whereas as an inhibitor unit—the amount that inhibits 1 enzyme unit.
Patients with periodontitis were taken from the gingival pockets before removing the plaque using tissue strips, which were placed in 1 ml of saline and then frozen at −80° C. […] The solution was sonicated, centrifuged and 100 μl of supernatant was taken for determinations. Various amounts of cystatin were added to the test solution, and then the protease activity was determined by the BANA test as in Example 1.

For data set [3] the test system is unchanged. In words: In vivo inhibition of cysteine gingipain activity in dogs (gums rubbed and drinking water with cystatin). As for the experimental part:
as §1
Standard tests for which the final result was determined were prepared in parallel with the tested samples, which were solutions containing all components as in the actual tests, except that after adding the BANA substrate the reactions were immediately stopped and the colorimetrically determined free β-naphthylamine was determined. As one unit of enzymatic activity of cysteine proteinases is the amount of enzyme which releases 1.0 nmole of β-naphthylamine from the substrate within one hour under the described incubation conditions, whereas as an inhibitor unit—the amount that inhibits 1 enzyme unit.

The subject of data set [4] is cysteine gingipain in dogs gingival pockets. Kind of data set: In vitro inhibition of cysteine proteases in gingival pocket fluid of dogs (BANA). The data set is classed as biochemical. Also noted: key to Cysteine gingipain activity after adding cystatin: enzyme units; 1 U releases 1.0 nmol β-naphthylamine per hour. The note with it: 40 ng cystatin. How it is done: as §1
Standard tests for which the final result was determined were prepared in parallel with the tested samples, which were solutions containing all components as in the actual tests, except that after adding the BANA substrate the reactions were immediately stopped and the colorimetrically determined free β-naphthylamine was determined. […]
Before periodontal removal, dogs with periodontal disease collected fluid from the gingival pockets using tissue strips that were placed in 1 mL of saline. […] Various amounts of cystatin were added to the test solution, and then the protease activity was determined using the BANA substrate as in Example 1.

Data set [5] deals with cysteine gingipain in gingival pocket fluids. Kind of data set: Dog case study, cystatin in drinking water and gum rubbing. The data set is classed as in vivo. The note with it: one dog. As for the experimental part:
A female mixed breed, weighing about 5 kg and 7 years old, became dejected and avoided food, staggered and turned over, and purulent discharge leaked from her nose. […] In dormancy, the stone was removed along with four molars on the left. During sleep, gingival pocket fluids were removed from 3 gingival pockets on the right using strips of paper and placed in tubes containing 1 ml of saline. After grinding the paper with ultrasound and centrifugation, the activity of cysteine gingipain was determined in solutions. Their activity ranged from 1.35 to 0.89 units based on 1.0 ml of liquid based on the amount of β-naphthylamine released. For 4 weeks, the dog was given water to drink with the addition of cystatin from egg protein at a concentration of about 10-6% and rubbed the gums with a pad impregnated with 0.001% cystatin from egg white 3-4 times a day. […] After 6 years of surgery, there were no changes in the periodontium. After some time, the dog got used to rubbing his gums, which probably saved him from changes in the periodontium.

The test system of data set [6] is chicken embryo. In words: Toxicity in chicken embryo studies. The data set is classed as in vivo.
Data set [7] is described as follows: Storage stability of inhibitory activity. The class given is physicochemical. As to conditions: about 4° C. The text has this:
The protein fractions are combined and the whole is subjected to separation on a membrane permeable compounds of a certain size. Because at this stage the interest is focused on the isolation of peptides and not cystatins, the combined protein fractions were not stabilized with glycerol or other glycols. The main reason for not using a stabilizer is the high probability of blocking the filters used in the separation stage. The combined protein fractions (eluate from the affinity chromatography column) are filtered as quickly as possible using membrane permeable to 3 kDa molecules, and then the low molecular filtrate is desalted on membrane permeable to 700 Da. […] The resulting low molecular weight oligopeptides are able to inhibit cysteine peptidase enzymes such as autogenic cathepsins or bacterial enzymes. The low molecular weight cysteine peptidase inhibitors of the invention thus obtained are stored either in a refrigerator (+4° C.) or in a freezer.
Inhibitory activity of cystatin and several-amino acid inhibitors of cysteine peptidases were determined in relation to cysteine gingipain in gingival pocket fluids and cysteine cathepsins in cancerous tissues and veins of people with atherosclerosis or native cathepsin B.

In data set [8] the test system is cysteine gingipain in gingival pocket fluids. As to conditions: as disclosed in PL 428931; cited from earlier work.
Data set [9] relates to cysteine gingipain in dogs gingival pockets. The note with it: as disclosed in PL 428931; cited from earlier work.
Data set [10] concerns Porphyromonas gingivalis. As to conditions: concentration of 50 WI; cited from earlier work.
[11] abbreviates: individual samples 1-11, after 4-6 weeks cystatin treatment vs before plaque removal, listed as cystatin solution from egg white.

B1: cystatin from egg white: known cystatin from egg white, activity 12 U/mg, stabilized with glycerol; natural cysteine peptidase inhibitor (protein, UniProt P01038 24-139, looked up)
Cystatin: SEDRSRLLGAPVPVDENDEGLQRALQFAMAEYNRASNDKYSSRVVRVISAKRQLVSGIKYILQVEIGRTTCPKSSGDLQSCEFHDEPEMAKYTTCTFVVYSIPWLNQIKLLESKCQ
As to B1, the “inhibition of proteolytic activity in gingival pocket fluids compared to total activity” value in [1] turned out to be 85%. For the same molecule, the “E/F*100 inhibited activity, Average” value in data set [2] (average of 23 samples) is given as 15.89 ± 6.28%. Further, in data set [2] (individual samples 1-23), the “CP activity after adding cystatin” value was 0.47 U/ml (3×) and 0.61 U/ml and 1.16 U/ml and 0.98 U/ml (2×) and 1.12 U/ml (2×) and 0.75 U/ml and 0.34 U/ml and 0.87 U/ml and 1.22 U/ml and 1.11 U/ml and 2.19 U/ml and 2.52 U/ml and 1.97 U/ml and 3.96 U/ml and 2.18 U/ml and 3.11 U/ml and 1.28 U/ml and 2.74 U/ml and 1.73 U/ml; the “E/F*100 inhibited activity” value was 18.29% and 28.11% and 10.59% and 10.08% and 26.86% and 18.94% and 9.63% and 5.67% and 11.03% and 14.79% and 10.68% and 14.30% and 8.99% and 14.76% and 11.46% and 21.57% and 24.84% and 24.00% and 22.20% and 24.47% and 13.87% and 20.10% and 16.83%. Moreover, in data set [3] (average of 11 samples), the “% inhibited activity, Average” value was “Approximately 67%” and the “% remaining activity, Average” value amounted to 32.97 ± 21.49%. In addition, the “% inhibited activity, Average” value in data set [3] (average of 11 samples, listed as cystatin solution from egg white) was found to be 67.05 ± 21.52%. Further, in data set [3] (setting [11]), the “% inhibited activity” value is 94.79% and 77.31% and 79.23% and 58.9% and 64.33% and 93.50% and 24.24% and 81.26% and 67.68% and 54.78% and 41.55%; the “% remaining activity” value is 5.51% and 22.69% and 20.77% and 41.10% and 35.67% and 6.50% and 75.76% and 18.73% and 32.32% and 45.22% and 58.45%. Further, in data set [4] (average of 19 dogs), the “% inhibited activity, Average” value is 87.28 ± 8.92% and the “% remaining activity, Average” value is 12.72 ± 8.92%. In addition, the “Cysteine gingipain activity after adding cystatin” value in [4] (dogs gingival pocket fluid, individual samples 1-19, 12 units/mg protein) is 0.06 (2×) and 0.04 (3×) and 0.03 (3×) and 0.08 and 0.02 (2×) and 0.07 (2×) and 0.09 and 0.15 and 0.24 and 0.13 (2×) and 0.23. Further, the “change of gingipain activity in gingival pocket fluids” value in [5] (4 weeks cystatin in water and gum rubbing 3-4 times a day, sampled after 3 months) is “reduced almost five-fold”. In addition, in data set [5] (after 3 months), the “tartar build-up and gum redness” value was “no tartar build-up or redness in the gums”. For the same molecule, the “toxicity relative to 0.02% chlorhexidine” value in data set [6] is on record as “about 105 times lower”. Further, in data set [7], the “inhibitory activity after storage for several months in the refrigerator” value was “dimerizes and loses its biological activity”. The “blocked proteolytic activity in the gingival pocket fluid, humans” value in data set [8] is “about 85%”. Further, in data set [9], the “blocked total proteolytic activity, dogs” value is “about 90%”. For the same molecule, in data set [10], the “elimination of bacteria from an infected area” value is “up to 50%”.
